Reference: paper PMC9992855, “Functional polyamine metabolic enzymes and pathways encoded by the virosphere” (Proceedings of the National Academy of Sciences of the …, 2023)

Substrate: CC(=O)NCCCNCCCCN
Test: colorimetric acetate release
Format: biochemical, Mycoplana ramosa
Details: 26 °C
Source text: colorimetric acetate release on M. ramosa APAH

B1: M. ramosa APAH (Mycoplana ramosa) (protein)
chain: MRVIFSEDHKLRNAKTELYGGELVPPFEAPFRAEWILAAVKEAGFDDVVAPARHGLETVLKVHDAGYLNFLETAWDRWKAAGYKGEAIATSFPVRRTSPRIPTDIEGQIGYYCNAAETAISPGTWEAALSSMASAIDGADLIAAGHKAAFSLCRPPGHHAGIDMFGGYCFINNAAVAAQRLLDKGAKKIAILDVDFHHGNGTQDIFYERGDVFFASLHGDPAEAFPHFLGYAEETGKGAGAGTTANYPMGRGTPYSVWGEALTDSLKRIAAFGAEAIVVSLGVDTFEQDPISFFKLTSPDYITMGRTIAASGVPLLVVMEGGYGVPEIGLNVANVLKGVAG
notes: 341 aa; positive comparative control enzyme
With B1 the Km was 630 ± 40 µM, the kcat was 5.8 ± 0.14 s⁻¹ and the kcat/Km was 9300 ± 450 M⁻¹ s⁻¹.
